Here are results for two molecules from patent US20240067745A1 (ABMAX BIOTECHNOLOGY, published 2024).

One assay deals with T1, IL-2 (UniProt P60568 21-153).
T1 construct: Purchased coating factor
In words: indirect ELISA, factor coated at 1 µg/ml. Here is the method:
(§1) The specific experimental process is as follows: C5, C3, C3b, rIFN γ (recombinant human interferon γ), IL-1α, IL-1β, IL-2, IL-4 and IL-8 (purchased from Inshore Technology, respectively) were mixed with PBS. Co., Ltd.), dilute the antigen to 1 μg/ml; add 100 μl/well of the diluted antigen to a 96-well plate, cover, overnight at 4° C.; shake off the liquid in the well, wash three times with PBS, 200 μl/well, manually Pat dry; block with 200 μl/well of 5% milk, block for 1 h, tap the edge of the ELISA plate every 15 minutes to promote the reaction; shake off the liquid in the well, wash once with PBS, 200 μl/well, pat dry by hand; add different light chains Heavy chain combination antibody, diluted in 5% milk, 100 μl/well, incubated for 1 h, tap the edge of the ELISA plate every 15 min to promote the reaction; shake off the liquid in the well, wash three times with PBS, 200 μl/well, pat dry by hand; add Goat anti-human secondary antibody, diluted in 5% milk, 100 μl/well; incubate for 1 h, tap the edge of the ELISA plate every 15 min to promote the reaction; preheat the TMB substrate at room temperature, and turn on the microplate reader to preheat; wash 5 times with PBS, 250 μl/well, the first three times 5 min, the last two times 10 min, pat dry by hand; add 50 μl/well of TMB substrate AB to each well, and develop color at room temperature for 20 min; use a scanner to scan and record the pictures, add 50 μl/well of stop solution, use enzyme The standard instrument reads OD450 and archives.

The next assay deals with T2, IL-8 (UniProt P10145 28-99, limits assumed).
T2 construct: Purchased coating factor
T2 sequence (looked up): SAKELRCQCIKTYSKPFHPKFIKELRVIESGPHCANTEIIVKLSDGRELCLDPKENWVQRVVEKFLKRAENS
The assay is described as follows: indirect ELISA, factor coated at 1 µg/ml. Here is the method: as §1
Background: An ELISA detects its analyte on a solid surface through an enzyme-linked reagent.

A further assay concerns the target T3, IL-1β (UniProt P01584 117-269).
T3 construct: Purchased coating factor
In words: indirect ELISA, factor coated at 1 µg/ml. Here is the method: as §1

In assay [1] the target is T4, rIFN γ (recombinant human interferon γ) (human, UniProt P01579 24-166, limits assumed).
T4 construct: Purchased coating factor
T4 sequence (looked up): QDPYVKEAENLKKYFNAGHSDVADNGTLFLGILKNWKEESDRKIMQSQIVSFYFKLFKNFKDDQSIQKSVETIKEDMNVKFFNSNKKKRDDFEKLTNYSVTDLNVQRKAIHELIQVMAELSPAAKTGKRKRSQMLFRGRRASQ
In words: indirect ELISA, factor coated at 1 µg/ml. Here is the method: as §1

Another assay concerns the target T5, IL-1α (UniProt P01583 113-271).
T5 construct: Purchased coating factor
T5 sequence (looked up): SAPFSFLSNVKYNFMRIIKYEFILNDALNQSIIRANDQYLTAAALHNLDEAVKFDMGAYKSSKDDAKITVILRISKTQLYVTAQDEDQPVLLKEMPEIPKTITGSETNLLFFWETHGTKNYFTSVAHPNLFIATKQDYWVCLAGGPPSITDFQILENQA
In words: indirect ELISA, factor coated at 1 µg/ml. Here is the method:
as §1

For a further assay, the target named is T6, C3 (UniProt P01024 23-1663, limits assumed).
T6 construct: Purchased coating factor
T6 sequence (P01024 23-1663 limits assumed): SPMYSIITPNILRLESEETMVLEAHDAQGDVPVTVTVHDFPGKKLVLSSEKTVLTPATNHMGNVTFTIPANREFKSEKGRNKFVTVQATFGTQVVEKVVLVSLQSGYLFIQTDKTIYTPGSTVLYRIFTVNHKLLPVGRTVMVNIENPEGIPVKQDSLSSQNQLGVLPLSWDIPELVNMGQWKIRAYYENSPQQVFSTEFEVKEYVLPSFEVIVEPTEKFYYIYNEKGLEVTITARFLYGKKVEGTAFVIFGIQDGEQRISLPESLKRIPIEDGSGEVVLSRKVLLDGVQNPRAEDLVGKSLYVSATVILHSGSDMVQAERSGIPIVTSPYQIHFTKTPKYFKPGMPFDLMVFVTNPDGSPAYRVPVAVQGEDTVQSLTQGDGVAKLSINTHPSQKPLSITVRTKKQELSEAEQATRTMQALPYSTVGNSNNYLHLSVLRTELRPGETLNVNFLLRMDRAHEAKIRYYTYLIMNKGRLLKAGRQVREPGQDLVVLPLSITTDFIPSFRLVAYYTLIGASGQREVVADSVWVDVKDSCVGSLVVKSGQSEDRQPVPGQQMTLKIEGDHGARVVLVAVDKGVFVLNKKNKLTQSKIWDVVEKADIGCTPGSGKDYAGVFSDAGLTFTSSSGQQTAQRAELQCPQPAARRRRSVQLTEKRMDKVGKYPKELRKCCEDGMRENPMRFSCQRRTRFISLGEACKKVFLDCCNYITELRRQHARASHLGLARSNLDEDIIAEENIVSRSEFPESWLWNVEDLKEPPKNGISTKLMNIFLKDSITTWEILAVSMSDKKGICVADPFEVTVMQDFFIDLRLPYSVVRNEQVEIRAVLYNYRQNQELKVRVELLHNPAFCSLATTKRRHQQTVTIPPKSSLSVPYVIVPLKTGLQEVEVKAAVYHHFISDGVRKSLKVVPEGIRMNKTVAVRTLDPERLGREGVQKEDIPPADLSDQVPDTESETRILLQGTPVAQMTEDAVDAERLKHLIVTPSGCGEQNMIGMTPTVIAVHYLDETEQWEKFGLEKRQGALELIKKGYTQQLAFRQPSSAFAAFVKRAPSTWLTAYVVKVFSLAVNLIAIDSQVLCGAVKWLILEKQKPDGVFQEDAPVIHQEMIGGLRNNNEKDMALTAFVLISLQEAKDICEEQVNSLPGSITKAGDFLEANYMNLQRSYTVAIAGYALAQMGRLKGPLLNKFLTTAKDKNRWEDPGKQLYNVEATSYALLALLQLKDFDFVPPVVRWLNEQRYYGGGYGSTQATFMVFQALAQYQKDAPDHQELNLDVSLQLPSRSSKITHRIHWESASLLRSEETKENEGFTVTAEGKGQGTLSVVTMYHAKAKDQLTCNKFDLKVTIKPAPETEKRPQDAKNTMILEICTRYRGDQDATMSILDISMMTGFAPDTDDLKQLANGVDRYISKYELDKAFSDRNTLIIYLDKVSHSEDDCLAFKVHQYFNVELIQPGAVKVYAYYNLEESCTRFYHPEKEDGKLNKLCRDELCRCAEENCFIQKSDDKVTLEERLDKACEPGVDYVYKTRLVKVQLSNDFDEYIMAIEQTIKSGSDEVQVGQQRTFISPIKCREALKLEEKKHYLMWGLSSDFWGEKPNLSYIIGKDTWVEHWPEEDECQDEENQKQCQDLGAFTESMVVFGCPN
In words: indirect ELISA, factor coated at 1 µg/ml. Here is the method: as §1

In a further assay the target is T7, IL-4 (UniProt P05112 25-153).
T7 construct: Purchased coating factor
T7 sequence (looked up): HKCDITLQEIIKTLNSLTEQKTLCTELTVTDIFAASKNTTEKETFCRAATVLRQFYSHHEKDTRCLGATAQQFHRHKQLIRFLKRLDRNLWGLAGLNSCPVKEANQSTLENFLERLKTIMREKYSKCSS
The assay is described as follows: indirect ELISA, factor coated at 1 µg/ml. Here is the method: as §1

The next assay concerns the target T8, complement protein C5 (human, UniProt P01031 19-1676, limits assumed).
T8 construct: Purchased antigen coated on the ELISA plate; Natural C5 is processed into beta and alpha chains from one precursor; also called human C5
The assay is described as follows: indirect ELISA, C5 coated at 0.3 µg/ml. Here is the method: The experimental method is as follows: Dilute the antigen with C5 (purchased from Nearshore Technology Co., Ltd.) to 0.3 μg/ml with PBS; add 100 μl/well of the diluted antigen to a 96-well plate, cover, overnight at 4° C.; shake off The liquid in the well was washed three times with PBS, 200 μl/well, and patted dry; blocked with 5% milk-PBS 200 μl/well for 1 hour, and tapped every 15 minutes; the liquid in the well was shaken off, washed once with PBS, 200 μl/well, and patted dry; Add purified antibody (0-10 μg/ml) in a gradient, see Table 4 for antibody name, 5% milk-PBS dilution, 100 μl/well, incubate for 1 h, tap every 15 min; shake off the liquid in the well, wash three times with PBS, 200 μl/well, pat dry; add secondary antibody, diluted in 5% milk-PBS, 100 μl/well, incubate for 1 h, tap every 15 min; preheat TMB substrate at room temperature, and turn on the microplate reader to preheat; wash 5 times with PBS, 250μl/well, the first three times 5 min, the last two times 10 min, pat dry; add 50 μl/well of TMB substrate AB each, and develop color at room temperature for 20 min; use a scanner to scan and record the picture, add 50 μl/well of stop solution, use enzyme labeling The meter reads OD450.

Changes are numbered by the printed parent chain. “And” between values parts separate entries of the source, which are not always exact repeats. Equal values may be shown once.

T8 sequence (P01031 19-1676 limits assumed): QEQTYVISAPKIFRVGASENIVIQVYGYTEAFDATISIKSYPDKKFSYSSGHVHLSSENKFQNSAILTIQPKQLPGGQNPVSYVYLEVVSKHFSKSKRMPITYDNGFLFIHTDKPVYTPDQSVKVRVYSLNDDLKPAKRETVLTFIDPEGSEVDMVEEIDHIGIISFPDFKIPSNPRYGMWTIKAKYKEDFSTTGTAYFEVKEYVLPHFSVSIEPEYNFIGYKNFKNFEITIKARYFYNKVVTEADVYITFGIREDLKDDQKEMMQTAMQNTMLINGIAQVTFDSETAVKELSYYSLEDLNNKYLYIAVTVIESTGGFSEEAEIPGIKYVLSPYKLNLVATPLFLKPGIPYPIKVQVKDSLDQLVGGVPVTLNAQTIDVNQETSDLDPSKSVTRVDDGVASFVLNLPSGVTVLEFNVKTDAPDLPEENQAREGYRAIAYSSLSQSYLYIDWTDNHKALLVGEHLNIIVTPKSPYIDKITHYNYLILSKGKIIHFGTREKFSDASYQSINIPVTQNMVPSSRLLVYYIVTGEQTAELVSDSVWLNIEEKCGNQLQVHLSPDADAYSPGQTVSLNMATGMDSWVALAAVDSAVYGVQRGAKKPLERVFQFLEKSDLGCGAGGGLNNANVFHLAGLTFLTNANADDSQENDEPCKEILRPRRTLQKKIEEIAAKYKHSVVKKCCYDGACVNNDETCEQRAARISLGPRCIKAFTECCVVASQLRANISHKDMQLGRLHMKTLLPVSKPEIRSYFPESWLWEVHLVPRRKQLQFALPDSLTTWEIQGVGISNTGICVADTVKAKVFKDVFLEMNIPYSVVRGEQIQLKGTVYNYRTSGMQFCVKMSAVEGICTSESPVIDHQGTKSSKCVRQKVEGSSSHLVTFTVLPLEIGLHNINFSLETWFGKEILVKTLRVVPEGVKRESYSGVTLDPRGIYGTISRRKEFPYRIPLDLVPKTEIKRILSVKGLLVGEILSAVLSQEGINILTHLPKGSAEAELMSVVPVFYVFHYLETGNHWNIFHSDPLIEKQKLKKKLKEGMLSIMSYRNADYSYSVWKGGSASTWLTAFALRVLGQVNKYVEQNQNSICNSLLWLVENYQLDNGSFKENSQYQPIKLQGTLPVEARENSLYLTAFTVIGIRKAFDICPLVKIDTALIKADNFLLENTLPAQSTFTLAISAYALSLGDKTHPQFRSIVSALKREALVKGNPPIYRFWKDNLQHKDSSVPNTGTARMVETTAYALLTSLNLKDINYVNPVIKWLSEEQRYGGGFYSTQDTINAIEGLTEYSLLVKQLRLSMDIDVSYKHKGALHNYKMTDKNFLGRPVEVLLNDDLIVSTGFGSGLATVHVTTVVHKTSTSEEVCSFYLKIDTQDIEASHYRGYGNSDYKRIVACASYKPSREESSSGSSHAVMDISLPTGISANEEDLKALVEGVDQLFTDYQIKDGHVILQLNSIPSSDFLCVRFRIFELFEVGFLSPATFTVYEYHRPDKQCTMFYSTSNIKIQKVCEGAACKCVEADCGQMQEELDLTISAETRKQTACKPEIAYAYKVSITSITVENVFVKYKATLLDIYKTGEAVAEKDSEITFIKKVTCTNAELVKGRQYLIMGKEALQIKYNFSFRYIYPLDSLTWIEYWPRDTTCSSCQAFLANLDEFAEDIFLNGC
T1 sequence (P60568 21-153 limits assumed): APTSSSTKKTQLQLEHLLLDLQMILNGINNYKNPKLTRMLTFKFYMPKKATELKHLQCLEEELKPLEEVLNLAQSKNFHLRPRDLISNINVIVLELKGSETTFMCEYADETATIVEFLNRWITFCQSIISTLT

B1: Improved Eculizumab monoclonal antibody H1L0 (antibody, human IgG1, kappa, V domains shown)
VH: QVQLVQSGGGVVQPGASVKVSCKASGYIFSNYWIQWVRQAPGQGLEWMGEILPGSGSTEYTENFKDRVTMTRDTSTSTVYMELSSLRSEDTAVYYCARYFFGSSPNWYFDVWGQGTLVTVSS
VL: DIQMTQSPSSLSASVGDRVTITCGASENIYGALNWYQQKPGKAPKLLIYGATNLADGVPSRFSGSGSGTDFTLTISSLQPEDFATYYCQNVLNTPLTFGQGTKVEIKR
notes: also called Improved H1L0; H1L0 (Improved)
As a reminder, the EC50 is the concentration needed to bring the measured effect to its halfway point. A higher EC50 goes with a less potent agent. As to B1, the binding result (in the assay with IL-2; in the assay with IL-8; with IL-1β; in assay [1]; in the assay with IL-1α; in the assay with C3) was “no binding” each time. Moreover, the binding result with IL-4 is recorded as “no binding”. Moreover, the EC50 with complement protein C5 is 0.00382 µg/mL and 0.0255 nM.

B2: Improved Eculizumab monoclonal antibody H3L0 (antibody, human IgG1, kappa, V domains shown)
VH: B1 VH with M70L, R72T, T74S, S77T, V79A, S84K, R87Q, S88F, E89D
VL: B1 VL
notes: also called Improved H3L0; H3L0 (Improved)
For the molecule B2, the binding result (in the assay with IL-2; with IL-8; with IL-1β; in assay [1]; with IL-1α; with C3) was “no binding” in each case. The binding result with IL-4 is reported as “no binding”.
